The text below walks through data of patent US20030099647A1 (Amgen, published 2003).

For the experiment, the target named is T1, CHO expressed human interferon gamma (hIFNγ) (human, UniProt P01579 24-161, glycosylated (highly glycosylated form purified)).
T1 construct: mature; The form 'mature' is inferred from secretion into conditioned medium; also called hu-IFNγ; hu IFNγ
T1 sequence (looked up): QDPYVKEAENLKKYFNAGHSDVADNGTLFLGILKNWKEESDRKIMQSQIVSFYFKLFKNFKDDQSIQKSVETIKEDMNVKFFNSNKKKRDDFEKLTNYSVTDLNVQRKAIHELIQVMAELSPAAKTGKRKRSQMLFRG
Kind of experiment: BIAcore neutralization assay; inhibition of hu IFNγ binding to IFNγ-R1. (In general: Surface plasmon resonance follows binding to a sensor surface in real time, without labels.)

One may read the IC50 as the point on the concentration scale where inhibition reaches its midpoint.

B1: BS-B IgG (antibody, V domains shown)
VH: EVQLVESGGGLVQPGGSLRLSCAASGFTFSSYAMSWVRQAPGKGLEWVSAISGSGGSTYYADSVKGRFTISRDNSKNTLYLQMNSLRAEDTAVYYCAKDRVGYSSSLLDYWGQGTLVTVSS
VL: NFMLTQPHSVSESPGKTVTISCTRSSGSIASYYVQWYQQRPGSSPTTVIYEDDQRPSGVPDRFSGSIDSASNSASLTISGLQTEDEADYYCQSYDRNSLVFGGGTKLTVLG
notes: The construction is described for BS-A; the others were cloned 'using similar procedures'; The VH limits 1-121 come from the germline comparison legend; also called BS-B full-length human IgG1 antibody; not shown: human IgG1 constant region (CH1, hinge, CH2 and CH3 domains) of plasmid pDSRα19:hIgG1 CH
Consider B1, for which the IC50 was found to be 9 nM.
